{"source": "paper PMC4141209", "target": "TlLhpI (OCD-like protein / Δ1-pyrroline-2-carboxylate reductase from Thermococcus litoralis DSM 5473) (Thermococcus litoralis DSM 5473)", "experiment": "SEC"}
{"substance": "TlLhpI (OCD-like protein / Δ1-pyrroline-2-carboxylate reductase from Thermococcus litoralis DSM 5473) (enzyme)", "values": [{"measurement": "stoichiometry N", "result": 2}]}
